Data from PMC5705603.

Biological target: Segmentally labelled CheA (P1 domain and P2-5 part labelled differently and joined) (Escherichia coli) (UniProt P07363)
Assay: NMR titration

UniProt P07363, sequence (P07363 whole entry, the tested form may be a part): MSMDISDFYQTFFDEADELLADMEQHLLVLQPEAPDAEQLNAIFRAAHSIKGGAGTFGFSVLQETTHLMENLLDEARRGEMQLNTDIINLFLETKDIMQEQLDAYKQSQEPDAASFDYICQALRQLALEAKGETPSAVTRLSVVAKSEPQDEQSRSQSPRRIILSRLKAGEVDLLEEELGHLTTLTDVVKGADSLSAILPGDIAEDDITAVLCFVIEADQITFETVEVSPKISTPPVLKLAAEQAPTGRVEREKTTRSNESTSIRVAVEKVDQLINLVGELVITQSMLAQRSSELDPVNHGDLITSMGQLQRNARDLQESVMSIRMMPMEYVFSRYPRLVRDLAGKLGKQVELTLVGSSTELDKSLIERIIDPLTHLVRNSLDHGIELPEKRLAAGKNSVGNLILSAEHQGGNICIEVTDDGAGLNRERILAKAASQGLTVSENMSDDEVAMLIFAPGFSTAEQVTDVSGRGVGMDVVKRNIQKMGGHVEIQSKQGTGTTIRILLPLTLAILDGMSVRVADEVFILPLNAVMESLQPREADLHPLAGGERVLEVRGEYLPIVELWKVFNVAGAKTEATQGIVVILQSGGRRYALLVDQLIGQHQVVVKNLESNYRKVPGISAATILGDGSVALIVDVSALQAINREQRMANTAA

CheY from Escherichia coli, wild type (from UniProt P0AE67 1-129) (natural protein)
stoichiometry N (CheY per CheA): 2
